Data reported in patent US7517654B2, “Peptide and a derivative thereof promoting cell adhesion and spreading” (Seoul National University Industry Foundation, priority 2004, dated 2009).
Entries after “also recorded” stand apart in the source; their conditions may differ.

Legend:
HOK-16B cells = assay: Cell spreading activity assay on coated plates; assay type: cell-based, human; conditions: spreading cells divided by total bound cells, coated plates
Experimental: To identify spreading cells, attached cells were fixed with 10% formalin in PBS for 15 min, rinsed twice with PBS, and stained with 0.005% crystal violet for 1 h. The plates were then gently rinsed with DDW. To ensure a representative count, each plate was divided into quarters, two fields per quarter were photographed using an Olympus BX51 microscope at 100× magnification. Cells that had adopted a flattened, polygonal shape, with filopodia-and lamellipodia-like extensions were considered to be spreading cells. In contrast, cells that resisted being washed and remained tethered to the plate surface were considered to be non-spreading cells.
To examine the adhesion activity of peptide P4 in detail, the inventors examined whether the adherent cells were tethered to the substratum or spread over the substratum. The BSA and rLG3 were used as the negative control and positive control, respectively, the percentage of cells displaying a spreading morphology was quantified by dividing the number of spreading cells by the total number of bound cells.

integrin α3β1 = target: T1, integrin α3β1 (Homo sapiens, UniProt P05556+P26006); assay: Adhesion activity inhibition assay with function-blocking anti-integrin mAbs or EDTA; assay type: cell-based; conditions: 25 μg/ml rLG3 or 10 μg/well peptide P4 coating; for inhibition of cell adhesion activity by anti-integrin β1 antibody: 5 μg/ml mAb (6S6) preincubation 30 min; for inhibition of cell adhesion activity by anti-integrin α3 antibody: 5 μg/ml mAb (P1B5) preincubation 30 min; for effect of EDTA on cell adhesion: 5 mM EDTA preincubation 30 min
T1 construct: it is confirmed that the HOK-16B cells expressed several integrins, including α3β1, α6β1, and α6β4; endogenous in cells; host or cells: HOK-16B (HPV-16-immortalized human oral keratinocytes)
T1 sequence (P26006 33-872 limits assumed): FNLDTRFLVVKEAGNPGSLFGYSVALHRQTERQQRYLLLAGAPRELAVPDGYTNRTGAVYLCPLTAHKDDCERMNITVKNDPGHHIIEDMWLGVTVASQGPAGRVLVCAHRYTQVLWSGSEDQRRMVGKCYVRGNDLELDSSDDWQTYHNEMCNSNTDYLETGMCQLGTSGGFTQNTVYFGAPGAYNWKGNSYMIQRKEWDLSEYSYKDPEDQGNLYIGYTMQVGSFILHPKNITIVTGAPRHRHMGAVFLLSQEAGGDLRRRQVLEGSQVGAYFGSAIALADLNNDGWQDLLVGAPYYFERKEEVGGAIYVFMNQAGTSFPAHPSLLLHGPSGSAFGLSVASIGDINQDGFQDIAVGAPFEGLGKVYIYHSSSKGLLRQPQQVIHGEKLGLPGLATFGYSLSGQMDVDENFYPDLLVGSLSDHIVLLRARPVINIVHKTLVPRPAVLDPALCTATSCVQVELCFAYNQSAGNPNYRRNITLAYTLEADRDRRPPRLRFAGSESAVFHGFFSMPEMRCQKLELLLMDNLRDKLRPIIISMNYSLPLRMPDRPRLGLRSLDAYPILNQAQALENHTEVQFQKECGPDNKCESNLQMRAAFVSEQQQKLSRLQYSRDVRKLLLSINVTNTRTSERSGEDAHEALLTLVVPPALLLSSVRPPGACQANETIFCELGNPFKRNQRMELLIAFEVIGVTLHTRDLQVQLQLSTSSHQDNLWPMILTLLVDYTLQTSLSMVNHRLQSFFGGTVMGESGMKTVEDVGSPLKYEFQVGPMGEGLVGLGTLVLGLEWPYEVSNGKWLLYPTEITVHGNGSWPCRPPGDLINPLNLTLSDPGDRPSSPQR
T1 sequence (P26006 873-1051 limits assumed): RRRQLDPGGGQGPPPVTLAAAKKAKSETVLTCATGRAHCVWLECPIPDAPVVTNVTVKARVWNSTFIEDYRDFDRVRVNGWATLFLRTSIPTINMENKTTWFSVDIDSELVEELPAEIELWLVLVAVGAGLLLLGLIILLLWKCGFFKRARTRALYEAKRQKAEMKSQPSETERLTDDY
T1 sequence (P05556 21-798): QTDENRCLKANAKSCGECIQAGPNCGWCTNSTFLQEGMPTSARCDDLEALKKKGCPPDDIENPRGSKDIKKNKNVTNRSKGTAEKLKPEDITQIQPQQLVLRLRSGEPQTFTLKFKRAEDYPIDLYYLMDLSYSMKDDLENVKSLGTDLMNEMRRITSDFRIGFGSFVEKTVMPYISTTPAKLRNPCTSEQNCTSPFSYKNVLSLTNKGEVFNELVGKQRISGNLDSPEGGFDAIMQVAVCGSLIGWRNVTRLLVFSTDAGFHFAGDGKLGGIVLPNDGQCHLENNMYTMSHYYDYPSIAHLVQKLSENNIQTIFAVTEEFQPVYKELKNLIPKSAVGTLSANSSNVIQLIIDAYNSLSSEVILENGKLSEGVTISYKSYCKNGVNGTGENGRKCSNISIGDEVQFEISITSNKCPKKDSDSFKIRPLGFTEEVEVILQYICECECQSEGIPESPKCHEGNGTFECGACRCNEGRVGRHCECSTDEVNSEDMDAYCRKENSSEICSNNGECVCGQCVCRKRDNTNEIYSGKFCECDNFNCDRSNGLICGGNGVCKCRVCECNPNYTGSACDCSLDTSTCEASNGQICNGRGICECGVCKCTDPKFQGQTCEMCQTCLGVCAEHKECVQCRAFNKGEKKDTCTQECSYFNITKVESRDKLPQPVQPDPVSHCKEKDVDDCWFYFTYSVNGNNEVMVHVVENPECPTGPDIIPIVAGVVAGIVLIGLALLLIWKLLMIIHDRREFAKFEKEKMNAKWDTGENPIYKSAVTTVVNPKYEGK
Experimental: To identify the receptor of the HOK-16B cells for rLG3 protein and peptide P4, 5 μg/ml of mAbs to different types of integrins or 5 mM EDTA were preincubated individually with HOK-16B cells in 0.5 ml incubation solution (2×10^5 cells/ml) for 30 min at 37° C. The preincubated cells were then transferred onto plates precoated with either 25 μg/ml of rLG3 protein or 10 μg/well of peptide P4 and incubated for 1 h at 37° C. Attached cells were then quantified by the cell adhesion assay described above in the Experimental Example 2, and cell adhesion activity inhibition rate were measured.
Meanwhile, the ligand-integrin interaction were known to require a divalent cation. To determine the role of cations in the interaction, the present inventors examined the effect of metal-chelating reagent, EDTA, on HOK-16B cell adhesion to the rLG3- and peptide P4-coated plates. HOK-16B cells were preincubated with 5 mM EDTA or 5 μg/ml function-blocking mAbs (Chemicon Temecula, CA) against integrin α3 (P1B5), β1 (6S6), α6 (NK I-GoH3) subunits for 30 min at 37° C. and plated on 25 μg/ml rLG3-precoated plate, and then cultured for 1 hr. After the unbound cells were washed off, the adherent cells were fixed to stain with crystal violet, and the stained cells were analyzed. The average adhesion activity of control cultures (HOK-16B cells preincubated without EDTA or integrin antibodies) were considered 100%.

FAK = FAK phosphorylation assay (immunoblot, p-FAK/t-FAK); assay type: cell-based, human; conditions: 15 min
Experimental: The FAK phosphorylation assays were performed according to a method of Shang et al. (J. Biol. Chem., 276:33045, 2001). In detail, the HOK-16B cells were trypsinized, washed, and kept in suspension in serum-free KGM with 0.1% BSA for 1 h at 37° C. The 60-mm culture dishes were coated with laminin (5 μg/ml) or rLG3 protein (25 μg/ml) at 4° C. overnight. Peptides (50 μg/60-mm culture dish) were also coated on dishes by drying overnight. For the adherent FAK assay, 1×10^6 cells were plated onto uncoated, laminin-coated, rLG3 protein-coated, or various peptide-coated dishes and allowed to attach for 15, 30, or 60 min at 37° C. in an atmosphere of 5% CO2. At the end of the incubation, cells were washed with ice-cold PBS and lysed in RIPA buffer (50 mM Tris [pH 7.4], 150 mM NaCl, 1% Nonidet P-40, 0.5% Na-deoxycholate, 1 mM EDTA, 0.1% SDS, 2 mM Na3VO4, 1 mM glycerol phosphate, 1 mM PMSF, and protease inhibitor cocktail). Lysates were clarified by centrifugation at 12,000×g for 10 min at 4° C. to isolate cytosolic extracts.
The cytosolic extracts were denatured using SDS sample buffer [50 mM Tris-HCl (pH 6.8), 2% SDS, 10% glycerol, 0.1% bromophenol blue, 100 mM β-mercaptoethanol] and separated on an 8% SDS-polyacrylamide gel. Electrophoretic transfer of SDS-PAGE gel separated with protein to a nitrocellulose membrane was followed by immnoblotting with polyclonal anti-FAK antibodies to determine the total FAK level or immnoblotting with polyclonal anti-FAK [pY^397], [pY^407], [pY^576], [pY^577] or [pY^861] antibodies to determine the extent of tyrosine phosphorylation. The relative fold induction of FAK phosphorylation, defined as an increase in FAK phosphorylation of a sample relative to its corresponding background level (i.e., cells plated on plastic) was determined as follows: First, the densitomerty intensity of the phosphorylated FAK (p-FAK) and the total FAK (t-FAK) signals from the Western blots were measured with a LAS-1000plus (Fuji photo film, Japan). The ratio of p-FAK to t-FAK (p-FAK/t-FAK) for each sample was then calculated to correct for differences in protein loading. This ratio was normalized to the p-FAK/t-FAK ratio of the negative controls to obtain the relative fold induction of FAK phosphorylation.
HOK-16B cells isolated by trypsinization were suspended for 1 hr, and kept in suspension (Sus), or replated on 60-mm culture dishes coated with or without laminin (5 μg/ml). The cells were kept for 15, 30, or 60 min for being attached on plates, then cell lysates were analyzed by immunoblot analysis with anti-FAK p-Y397 antibody (Biosource, Camariollo, Calif.). […] This effect was observed within 15 min and peaked at 15 min after exposure to the laminin-coated plate (FIG. 8A).
Therefore, the extent of FAK phosphorylation at Tyr-397,-407,-576, -577, and -861 was investigated in HOK-16B cells cultured on plates coated with laminin (5 μg/ml), rLG3 (25 μg/ml), or peptides P1-P5 (50 μg/60-mm dish) for 15 min. The lysates were immnoblotted with polyclonal anti-FAK, p-Y397, p-Y407, p-Y576, p-Y577 or p-Y861 antibodies (Biosoucce, Camariollo, Calif.), and the total FAK level was detected using anti-FAK antibodies (Upstate Biotechnology, Lake Placid, N.Y. The ratio of p-FAK to t-FAK (p-FAK/t-FAK) for each sample was then calculated to correct for differences in protein loading. This ratio was normalized to the p-FAK/t-FAK ratio of the negative controls (cells on plates) to obtain the relative fold induction of FAK phosphorylation. As a result, the extent of FAK phosphorylation at Tyr-397 cultured on the laminin-coated or rLG3 protein-coated plates increased 16.2- and 8.2-fold compared with the untreated control (FIG. 8B).

**Q.** How did the “HOK-16B cells displaying a spreading morphology” value (HOK-16B cells) turn out when PPFLMLLKGSTR [peptide P4] was run?
**A.** 35%

**Q.** What about the “inhibition of cell adhesion activity by anti-integrin β1 antibody” value (integrin α3β1) of the same molecule?
**A.** 54%

**Q.** And the “inhibition of cell adhesion activity by anti-integrin α3 antibody” value (integrin α3β1)?
**A.** 49%

**Q.** What about the “effect of EDTA on cell adhesion” value (integrin α3β1) of the same molecule?
**A.** decrease in cell adhesion

**Q.** And the “FAK phosphorylation level at Tyr-577” value (FAK; HOK-16B cells on coated dishes, peptides 50 μg/60-mm dish)?
**A.** higher than that in the cells spread on the other peptides; also recorded: lower than that on laminin

B1: rLG3: recombinant His6-tagged LG3 domain, residues 1128-1364 of human laminin α3 chain (protein, listed as Homo sapiens)
chain: VRLNDTVGVTKKCSEDWKLVRSASFSRGGQLSFTDLGLPPTDHLQASFGFQTFQPSGILLDHQTWTRNLQVTLEDGYIELSTSDSGGPIFKSPQTYMDGLLHYVSVISDNSGLRLLIDDQLLRNSKRLKHISSSRQSLRLGGSNFEGCISNVFVQRLSLSPEVLDLTSNSLKRDVSLGGCSLNKPPFLMLLKGSTRFNKTKTFRINQLLQDTPVASPRSVKVWQDACSPLPKTQANH
modifications: His6 tag
notes: recombinant His6-tagged LG3 domain, residues 1128-1364 of human laminin α3 chain
**Q.** With B1 as the molecule, how does the “HOK-16B cells displaying a spreading morphology” value (HOK-16B cells) read?
**A.** 47%

**Q.** What about the “inhibition of cell adhesion activity by anti-integrin β1 antibody” value (integrin α3β1) of the same molecule?
**A.** 71%

**Q.** And the “inhibition of cell adhesion activity by anti-integrin α3 antibody” value (integrin α3β1)?
**A.** 71%

**Q.** What about the “effect of EDTA on cell adhesion” value (integrin α3β1) of the same molecule?
**A.** almost completely inhibited

**Q.** What about the “changes of the FAK phosphorylation levels at Tyr-407, -576 and -861” value (FAK; HOK-16B cells on coated dishes) of the same molecule?
**A.** not observed

**Q.** And the “increase of FAK phosphorylation at Tyr-397 compared with the untreated control” value (FAK; HOK-16B cells, laminin 5 μg/ml or rLG3 25 μg/ml coating, p-FAK/t-FAK normalized)?
**A.** 8.2 fold
